From patent publication US20150344570A1 (published 2015)

T1: FcγRIIb extracellular domain with C-terminal His tag (human, UniProt P31994 43-217)
T1 construct: extracellular domain; also called 2b; FcgRIIb
T1 sequence (looked up): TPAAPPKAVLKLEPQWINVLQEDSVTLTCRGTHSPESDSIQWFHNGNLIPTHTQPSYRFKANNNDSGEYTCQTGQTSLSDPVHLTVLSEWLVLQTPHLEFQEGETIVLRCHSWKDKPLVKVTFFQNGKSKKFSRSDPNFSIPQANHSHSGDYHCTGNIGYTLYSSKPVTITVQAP

T2: FcγRIIb (human, UniProt P31994 43-217)
T2 construct: extracellular domain; also called FcgRIIb; 2b
T2 sequence (looked up): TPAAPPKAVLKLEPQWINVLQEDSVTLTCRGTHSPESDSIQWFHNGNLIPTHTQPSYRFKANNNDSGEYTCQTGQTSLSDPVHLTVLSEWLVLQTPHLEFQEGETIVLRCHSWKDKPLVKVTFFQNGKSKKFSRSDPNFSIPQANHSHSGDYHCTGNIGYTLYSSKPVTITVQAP


What was measured:
[1] = molecular target: T3, FcγRIIIa extracellular domain with C-terminal His tag (human, UniProt P08637 17-208); experiment: SPR, binding relative to GpH7-A5/GpH7-B3/GpL16-k0 = 100
T3 construct: extracellular domain; also called 3a; FcgRIIIa
T3 sequence (P08637 17-208): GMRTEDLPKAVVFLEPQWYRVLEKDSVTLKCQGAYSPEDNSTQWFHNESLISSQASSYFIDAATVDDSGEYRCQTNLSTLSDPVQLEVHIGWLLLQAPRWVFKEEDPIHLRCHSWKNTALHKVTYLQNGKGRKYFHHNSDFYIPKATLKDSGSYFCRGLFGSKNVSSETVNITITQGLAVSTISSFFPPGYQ
Procedure: (§1) The heterodimerized antibodies He Abs in which one of the H chains was introduced with an alteration were assayed for their binding activities to each activating FcγR and inhibitory FcγR according to the method described in Example 4. […] The activating FcγRs in FIGS. 26, 27, 28, and 29 are FcγRIa, FcγRIIa (R), FcγRIIa (H), and FcγRIIIa, respectively.
(§2) Analysis of interaction between objective antibody and the FcγR was carried out using Biacore T100 (GE Healthcare). HBS-EP+ (GE Healthcare) was used as the running buffer, and the measurement temperature was set to 25° C. Chips produced by immobilizing the antigen peptide by the amine coupling method to a Series S Sencor Chip CM5 (GE Healthcare), or alternatively, chips produced by allowing preliminarily biotinylated antigen peptides to interact with and immobilize onto a Series S Sensor Chip SA (certified) (GE Healthcare) were used. Antibodies of interest were captured onto an antigen peptide-immobilized chip, and allowed to interact to each FcγR diluted with running buffer. To regenerate and repeatedly use the chip, the antibodies captured on the chip were washed off by reacting 10 mM glycine-HCl, pH 1.5.

[2] = molecular target: T1, FcγRIIb extracellular domain with …; experiment: as above
Procedure: as §1, §2

[3] = molecular target: T4, FcγRIIIa (human, UniProt P08637 17-208); experiment: SPR (Biacore), relative binding
T4 construct: extracellular domain; also called FcgRIIIa; 3a
T4 sequence (P08637 17-208): as above

[4] = molecular target: T2, FcγRIIb; experiment: SPR (Biacore), relative binding

Row | Binder | He/Con_3a [1] | He/Con_2b [2] | He/Con_3a [3] | He/Con_2b [4]
1 | GpH7-A5/GpH7-B3 variant A330_03V/GpL16-k0 (antibody, human IgG1, kappa, also called He Ab) heavy 1: not shown heavy 2: not shown light: DIVMTQSPLSLPVTPGEPASISCQASESLVHSNRNTYLHWYLQKPGQSPQLLIYKVSNRFSGVPDRFSGSGSGTDFTLKISRVEAEDVGVYYCSQNTHVPPTFGQGTKVEIERTVAAPSVFIFPPSDEQLKSGTASVVCLLNNFYPREAKVQWKVDNALQSGNSQESVTEQDSKDSTYSLSSTLTLSKADYEKHKVYACEVTHQGLSSPVTKSFNRGEC | 101 % of control | 52.4 % of control | – | –
2 | GpH7-A5/GpH7-B3 variant T335_04F/GpL16-k0 (antibody, human IgG1, kappa, mutation in the GpH7-B3 chain only; also called He Ab) heavy 1: not shown heavy 2: not shown light: DIVMTQSPLSLPVTPGEPASISCQASESLVHSNRNTYLHWYLQKPGQSPQLLIYKVSNRFSGVPDRFSGSGSGTDFTLKISRVEAEDVGVYYCSQNTHVPPTFGQGTKVEIERTVAAPSVFIFPPSDEQLKSGTASVVCLLNNFYPREAKVQWKVDNALQSGNSQESVTEQDSKDSTYSLSSTLTLSKADYEKHKVYACEVTHQGLSSPVTKSFNRGEC | – | – | 96 % of GpH7-A5/GpH7-B3/GpL16-k0 | 103 % of GpH7-A5/GpH7-B3/GpL16-k0
3 | GpH7-A5/GpH7-B3 variant E333_04F/GpL16-k0 (antibody, human IgG1, kappa, also called He Ab) heavy 1: not shown heavy 2: not shown light: DIVMTQSPLSLPVTPGEPASISCQASESLVHSNRNTYLHWYLQKPGQSPQLLIYKVSNRFSGVPDRFSGSGSGTDFTLKISRVEAEDVGVYYCSQNTHVPPTFGQGTKVEIERTVAAPSVFIFPPSDEQLKSGTASVVCLLNNFYPREAKVQWKVDNALQSGNSQESVTEQDSKDSTYSLSSTLTLSKADYEKHKVYACEVTHQGLSSPVTKSFNRGEC | 101 % of control | 94.6 % of control | – | –
4 | GpH7-A5/GpH7-B3 variant D270_10E/GpL16-k0 (antibody, human IgG1, kappa, also called He Ab) heavy 1: not shown heavy 2: not shown light: DIVMTQSPLSLPVTPGEPASISCQASESLVHSNRNTYLHWYLQKPGQSPQLLIYKVSNRFSGVPDRFSGSGSGTDFTLKISRVEAEDVGVYYCSQNTHVPPTFGQGTKVEIERTVAAPSVFIFPPSDEQLKSGTASVVCLLNNFYPREAKVQWKVDNALQSGNSQESVTEQDSKDSTYSLSSTLTLSKADYEKHKVYACEVTHQGLSSPVTKSFNRGEC | 123 % of control | 76.5 % of control | – | –
5 | GpH7-A5/GpH7-B3 variant E333_09D/GpL16-k0 (antibody, human IgG1, kappa, also called He Ab) heavy 1: not shown heavy 2: not shown light: DIVMTQSPLSLPVTPGEPASISCQASESLVHSNRNTYLHWYLQKPGQSPQLLIYKVSNRFSGVPDRFSGSGSGTDFTLKISRVEAEDVGVYYCSQNTHVPPTFGQGTKVEIERTVAAPSVFIFPPSDEQLKSGTASVVCLLNNFYPREAKVQWKVDNALQSGNSQESVTEQDSKDSTYSLSSTLTLSKADYEKHKVYACEVTHQGLSSPVTKSFNRGEC | 112 % of control | 94.3 % of control | – | –
6 | GpH7-A5/GpH7-B3 variant E333_03V/GpL16-k0 (antibody, human IgG1, kappa, also called He Ab) heavy 1: not shown heavy 2: not shown light: DIVMTQSPLSLPVTPGEPASISCQASESLVHSNRNTYLHWYLQKPGQSPQLLIYKVSNRFSGVPDRFSGSGSGTDFTLKISRVEAEDVGVYYCSQNTHVPPTFGQGTKVEIERTVAAPSVFIFPPSDEQLKSGTASVVCLLNNFYPREAKVQWKVDNALQSGNSQESVTEQDSKDSTYSLSSTLTLSKADYEKHKVYACEVTHQGLSSPVTKSFNRGEC | 103 % of control | 93.2 % of control | – | –
7 | GpH7-A5/GpH7-B3 variant A330_08L/GpL16-k0 (antibody, human IgG1, kappa, also called He Ab) heavy 1: not shown heavy 2: not shown light: DIVMTQSPLSLPVTPGEPASISCQASESLVHSNRNTYLHWYLQKPGQSPQLLIYKVSNRFSGVPDRFSGSGSGTDFTLKISRVEAEDVGVYYCSQNTHVPPTFGQGTKVEIERTVAAPSVFIFPPSDEQLKSGTASVVCLLNNFYPREAKVQWKVDNALQSGNSQESVTEQDSKDSTYSLSSTLTLSKADYEKHKVYACEVTHQGLSSPVTKSFNRGEC | 124 % of control | 70.5 % of control | – | –
8 | GpH7-A5/GpH7-B3 variant A330_06M/GpL16-k0 (antibody, human IgG1, kappa, also called He Ab) heavy 1: not shown heavy 2: not shown light: DIVMTQSPLSLPVTPGEPASISCQASESLVHSNRNTYLHWYLQKPGQSPQLLIYKVSNRFSGVPDRFSGSGSGTDFTLKISRVEAEDVGVYYCSQNTHVPPTFGQGTKVEIERTVAAPSVFIFPPSDEQLKSGTASVVCLLNNFYPREAKVQWKVDNALQSGNSQESVTEQDSKDSTYSLSSTLTLSKADYEKHKVYACEVTHQGLSSPVTKSFNRGEC | 142 % of control | 80.5 % of control | – | –
9 | GpH7-A5/GpH7-B3 variant T335_18N/GpL16-k0 (antibody, human IgG1, kappa, mutation in the GpH7-B3 chain only; also called He Ab) heavy 1: not shown heavy 2: not shown light: DIVMTQSPLSLPVTPGEPASISCQASESLVHSNRNTYLHWYLQKPGQSPQLLIYKVSNRFSGVPDRFSGSGSGTDFTLKISRVEAEDVGVYYCSQNTHVPPTFGQGTKVEIERTVAAPSVFIFPPSDEQLKSGTASVVCLLNNFYPREAKVQWKVDNALQSGNSQESVTEQDSKDSTYSLSSTLTLSKADYEKHKVYACEVTHQGLSSPVTKSFNRGEC | – | – | 98.8 % of GpH7-A5/GpH7-B3/GpL16-k0 | 102 % of GpH7-A5/GpH7-B3/GpL16-k0
